Experimental findings from patent US20260022175A1 (Chugai, published 2026) are described below.

One may read the Kd as the constant that tells how readily two partners part at equilibrium. Usually koff stands for the rate constant with which the complex falls apart. For orientation: kon means the second-order rate constant of association.

Where a chain is given by its changes, count along the chain named.

Assay [1] deals with T1, cynomolgus monkey CTLA4 (CyCTLA4-His-BAP) (cynomolgus monkey). The assay can be described thus: SPR Biacore T200, 37C, antibody captured, ATP 100 uM. For orientation: In SPR one partner is held on a chip, and binding of the other changes the refractive index at the surface.
Assay [2] deals with T2, human CTLA4 (human).
T2 construct: also called hCTLA4; hCTLA4-His-BAP
Described as above.

For assay [3], the target named is T1, cynomolgus monkey CTLA4 …. Put plainly: SPR Biacore T200, 37C, antibody captured, ATP 1 uM.
The target of assay [4] is T2, human CTLA4. The assay can be described thus: SPR Biacore T200, 37C, antibody captured, ATP 1 uM.
The target of assay [5] is T2, human CTLA4. Put plainly: SPR Biacore T200, 37C, antibody captured, ADP 10 uM.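 Note: antibodies held on a Protein G CM3 chip, human CTLA4 as analyte in ACES pH 7.4 buffer, rates from a global 1:1 Langmuir fit, Kd from rates or steady state.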
The target in assay [6] is T2, human CTLA4. Put plainly: SPR Biacore T200, 37C, antibody captured, no ATP, steady state model.
Assay [7] has as its target T2, human CTLA4. Put plainly: SPR Biacore T200, 37C, antibody captured, ATP 1 uM. The source holds these as a separate data set.
Assay [8] has as its target T1, cynomolgus monkey CTLA4 …. The assay can be described thus: SPR Biacore T200, 37C, antibody captured, ATP 10 uM.
The target of assay [9] is T2, human CTLA4. The description is as above.
Assay [10] has as its target T2, human CTLA4. The description is as above. The source holds these as a separate data set.
Assay [11] addresses T2, human CTLA4. The assay can be described thus: SPR Biacore T200, 37C, antibody captured, AMP 10 uM.
Assay [12] addresses T2, human CTLA4. Put plainly: SPR Biacore T200, 37C, antibody captured, ATP 10 uM. This is another data set of the same source.
Assay [13] concerns the target T3, human FcγRIIa R extracellular domain (human, UniProt P12318 34-217).
T3 construct: extracellular domain; also called hFcγR IIa R
T3 sequence (looked up): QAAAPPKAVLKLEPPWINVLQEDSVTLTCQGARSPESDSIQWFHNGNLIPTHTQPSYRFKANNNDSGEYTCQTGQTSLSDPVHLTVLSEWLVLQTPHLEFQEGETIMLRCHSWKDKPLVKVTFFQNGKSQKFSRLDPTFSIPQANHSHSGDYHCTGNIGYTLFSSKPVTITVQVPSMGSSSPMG
The assay can be described thus: SPR Biacore 8K+; KD for FcγRIIb divided by KD for this FcγR.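 Note: antibodies captured on an anti-human Fab kappa SA chip with soluble human FcγR ectodomains flowed over, FcγRIIb KD from steady-state fit, other FcγR KD from Langmuir model.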

The target of assay [14] is T4, human FcγRIIIa F extracellular domain (human, UniProt P08637 17-208).
T4 construct: extracellular domain; also called hFcγR IIIa F
The description is as above.

Assay [15] has as its target T5, human FcγRIIIa V extracellular domain (human, UniProt P08637 17-208).
T5 construct: extracellular domain; also called hFcγR IIIa V
The assay is described as above.

The target in assay [16] is T6, human FcγRIIa H extracellular domain (human, UniProt P12318 34-217).
T6 construct: extracellular domain; also called hFcγR IIa H
T6 sequence (looked up): T3 sequence (looked up) with R134H
Described as above.

Assay [17] addresses T7, human FcγRIIb extracellular domain (human, UniProt P31994 43-217).
T7 construct: extracellular domain; also called hFcγR IIb
T7 sequence (looked up): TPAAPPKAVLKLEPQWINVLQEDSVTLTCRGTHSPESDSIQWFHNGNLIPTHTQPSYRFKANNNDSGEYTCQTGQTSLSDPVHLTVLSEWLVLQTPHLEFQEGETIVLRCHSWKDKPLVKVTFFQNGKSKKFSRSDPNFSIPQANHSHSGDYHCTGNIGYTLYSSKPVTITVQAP
Put plainly: SPR Biacore 8K+, antibody captured, FcγR as analyte, steady state affinity model.

Assay [18] concerns the target T7, human FcγRIIb extracellular domain. The assay can be described thus: SPR Biacore 8K+; KD of G1d divided by KD of this antibody.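 Note: antibodies captured on an anti-Fab-kappa streptavidin chip, soluble FcγR ectodomains flowed over, KD by steady-state fit for FcγRIIb and Langmuir kinetic model for the other receptors.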
Assay [19] concerns the target T8, human FcγRIa extracellular domain (human, UniProt P12314 16-292).
T8 construct: extracellular domain; also called hFcγR Ia; hFcγRIa
Described as above.

The target in assay [20] is T3, human FcγRIIa R extracellular domain. Described as above.
Assay [21] deals with T4, human FcγRIIIa F extracellular domain. Described as above.
Assay [22] addresses T5, human FcγRIIIa V extracellular domain. The assay is described as above.
Assay [23] addresses T6, human FcγRIIa H extracellular domain. The description is as above.
For assay [24], the target named is T9, human C1q protein (Calbiochem) (human, UniProt P02745 23-245; P02746 28-253; P02747 29-245).
T9 construct: bought; also called hC1q
The assay can be described thus: ELISA: antibody coated on the plate at the varied concentration, hC1q 3 µg/mL added, detected with HRP-conjugated anti-hC1q antibody, O.D (450-690nm).

The target of assay [25] is hFcγRIIIaV on hFcγRIIIaV-expressing Jurkat cells (human, UniProt P08637 17-254). The assay can be described thus: cell-based or functional assay.
Assay [26] addresses T8, human FcγRIa extracellular domain. The assay can be described thus: SPR Biacore 8K+, antibody captured, FcγR as analyte, 1:1 Langmuir model.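 Note: antibodies captured on a streptavidin chip through a biotinylated anti-human Fab kappa reagent, with FcγR extracellular domains injected in pH 7.4 phosphate buffer at 25 °C.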
The target in assay [27] is T3, human FcγRIIa R extracellular domain. The description is as above.
Assay [28] addresses T4, human FcγRIIIa F extracellular domain. The assay is described as above.
Assay [29] concerns the target T5, human FcγRIIIa V extracellular domain. The assay is described as above.
In assay [30] the target is T6, human FcγRIIa H extracellular domain. Described as above.
In assay [31] the target is T10, hCTLA4-His-BAP (human CTLA4 extracellular region with C-terminal His-tag and BAP-tag) (human, biotin on the BAP-tag).
T10 construct: also called hCTLA4-His-Biotin
Put plainly: SPR 37C, ATP 100 µM; ATP 100 µM.

Assay [32] deals with T10, hCTLA4-His-BAP (human CTLA4 …). The assay can be described thus: SPR 37C, hCTLA4 1000 nM, ATP 100 µM; ATP 100 µM; binding amount at 1000 nM hCTLA4.
For assay [33] the target is unchanged. The assay can be described thus: SPR 37C, hCTLA4 1000 nM, ATP 1 µM; ATP 1 µM; binding amount at 1000 nM hCTLA4.
Assay [34] shares this target. Put plainly: SPR 37C, hCTLA4 1000 nM, no ATP; no ATP; binding amount at 1000 nM hCTLA4.
The target is the same in assay [35]. The assay can be described thus: SPR 37C, hCTLA4 1000 nM, ATP 10 µM; ATP 10 µM; binding amount at 1000 nM hCTLA4.

T4 sequence (P08637 17-208): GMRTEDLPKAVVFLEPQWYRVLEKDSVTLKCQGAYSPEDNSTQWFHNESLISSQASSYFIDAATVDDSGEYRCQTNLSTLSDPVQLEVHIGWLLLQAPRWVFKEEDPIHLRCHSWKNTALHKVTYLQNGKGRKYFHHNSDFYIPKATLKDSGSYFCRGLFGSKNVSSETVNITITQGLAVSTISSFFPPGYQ
T10 sequence (chain, as listed by the source limits assumed): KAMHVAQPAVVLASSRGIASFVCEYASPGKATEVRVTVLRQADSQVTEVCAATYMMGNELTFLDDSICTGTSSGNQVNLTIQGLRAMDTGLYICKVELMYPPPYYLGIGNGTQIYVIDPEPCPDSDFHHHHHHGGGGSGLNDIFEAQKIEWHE
T1 sequence (chain, as listed by the source limits assumed): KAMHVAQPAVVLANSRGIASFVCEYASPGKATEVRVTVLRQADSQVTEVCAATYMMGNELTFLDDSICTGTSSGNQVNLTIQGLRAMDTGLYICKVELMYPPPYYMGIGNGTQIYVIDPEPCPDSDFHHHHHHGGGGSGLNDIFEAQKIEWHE
T5 sequence (P08637 17-208 F176V limits assumed): as the sequence (P08637 17-208) above, with F160V counted along it
T9 sequence (P02745 23-245 limits assumed, chain 1 of 3): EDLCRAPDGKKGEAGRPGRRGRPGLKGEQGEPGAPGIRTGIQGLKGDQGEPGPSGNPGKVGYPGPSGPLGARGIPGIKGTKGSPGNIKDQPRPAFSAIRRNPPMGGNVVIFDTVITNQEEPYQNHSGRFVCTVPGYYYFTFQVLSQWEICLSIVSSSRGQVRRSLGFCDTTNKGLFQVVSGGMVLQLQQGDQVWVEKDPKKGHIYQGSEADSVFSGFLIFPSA
T9 sequence (P02746 28-253 limits assumed, chain 2 of 3): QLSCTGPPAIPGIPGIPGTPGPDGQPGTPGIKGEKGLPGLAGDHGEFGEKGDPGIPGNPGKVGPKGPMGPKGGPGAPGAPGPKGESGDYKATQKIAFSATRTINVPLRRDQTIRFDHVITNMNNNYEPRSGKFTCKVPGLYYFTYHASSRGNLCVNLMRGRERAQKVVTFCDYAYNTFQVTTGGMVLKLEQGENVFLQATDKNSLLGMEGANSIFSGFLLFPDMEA
T9 sequence (P02747 29-245 limits assumed, chain 3 of 3): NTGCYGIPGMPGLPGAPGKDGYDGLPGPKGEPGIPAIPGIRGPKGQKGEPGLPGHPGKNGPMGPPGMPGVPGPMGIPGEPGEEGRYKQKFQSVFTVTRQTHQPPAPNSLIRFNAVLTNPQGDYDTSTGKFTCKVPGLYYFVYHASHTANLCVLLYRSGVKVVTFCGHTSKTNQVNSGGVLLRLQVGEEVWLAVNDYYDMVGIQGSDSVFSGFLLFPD
T8 sequence (P12314 16-292): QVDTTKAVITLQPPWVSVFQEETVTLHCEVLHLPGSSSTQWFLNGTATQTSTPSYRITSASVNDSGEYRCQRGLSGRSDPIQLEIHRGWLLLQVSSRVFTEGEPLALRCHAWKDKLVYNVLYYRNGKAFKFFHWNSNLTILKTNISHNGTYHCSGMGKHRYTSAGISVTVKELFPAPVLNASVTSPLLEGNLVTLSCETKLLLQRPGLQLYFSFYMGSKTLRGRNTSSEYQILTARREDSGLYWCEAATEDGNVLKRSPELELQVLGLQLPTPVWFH
Sequence of hFcγRIIIaV on hFcγRIIIaV-expressing Jurkat cells (P08637 17-254, form in doubt): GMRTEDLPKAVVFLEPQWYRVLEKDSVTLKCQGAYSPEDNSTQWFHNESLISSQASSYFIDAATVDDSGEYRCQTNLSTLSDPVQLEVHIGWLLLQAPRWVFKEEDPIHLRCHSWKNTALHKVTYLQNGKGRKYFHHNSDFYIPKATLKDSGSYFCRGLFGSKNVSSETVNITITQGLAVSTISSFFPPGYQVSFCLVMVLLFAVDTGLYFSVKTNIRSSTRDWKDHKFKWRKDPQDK

B1: 04H1656-G1m/04L1612-lam1 (antibody, human IgG1, lambda)
heavy: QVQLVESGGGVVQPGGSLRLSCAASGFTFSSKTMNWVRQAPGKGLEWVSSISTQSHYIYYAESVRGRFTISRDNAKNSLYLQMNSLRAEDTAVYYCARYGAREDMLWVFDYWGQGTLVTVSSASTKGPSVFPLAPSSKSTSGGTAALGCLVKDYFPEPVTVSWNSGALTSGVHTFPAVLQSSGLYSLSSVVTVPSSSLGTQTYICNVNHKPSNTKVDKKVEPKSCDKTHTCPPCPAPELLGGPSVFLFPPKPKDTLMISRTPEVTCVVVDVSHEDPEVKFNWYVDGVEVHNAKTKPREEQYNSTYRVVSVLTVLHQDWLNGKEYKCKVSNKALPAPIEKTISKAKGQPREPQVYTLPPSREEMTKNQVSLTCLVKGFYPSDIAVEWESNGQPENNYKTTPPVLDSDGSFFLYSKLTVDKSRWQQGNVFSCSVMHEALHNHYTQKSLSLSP
light: QSALTQPPSASGSPGQSVTISCEGPSTGVGDYTYVHWYQQHPGKAPKLMIYFTSKKPSGVPDRFSGSKSGNTASLTVSGLQAEDEADYYCQTYAAPLGPMFGGGTKLTVLGQPKAAPSVTLFPPSSEELQANKATLVCLISDFYPGAVTVAWKADSSPVKAGVETTTPSKQSNNKYAASSYLSLTPEQWKSHRSYSCQVTHEGSTVEKTVAPTECS
Consider B1, for which the Kd in assay [1] is 16 nM; in the assay with human CTLA4 [2], 7.8 nM; in assay [3] it was 160 nM; with human CTLA4 [4], 95 nM; with human CTLA4 [5] it was 42 nM; in the assay with human CTLA4 [6], 7600 nM. Also, the Kd in the assay with human CTLA4 [7] came to 160 nM; in [8] it was 41 nM; with human CTLA4 [9], 25 nM; in the assay with human CTLA4 [10] it was 26 nM; in the assay with human CTLA4 [11] it was 130 nM; in the assay with human CTLA4 [12], 32 nM. Moreover, the koff in the assay with human CTLA4 [5] was 0.0064 s⁻¹; with human CTLA4 [10], 0.0029 s⁻¹; with human CTLA4 [11] it was 0.02 s⁻¹. The figures for the kon with human CTLA4 [5], with human CTLA4 [10] and with human CTLA4 [11] were 150000 M⁻¹ s⁻¹, 110000 M⁻¹ s⁻¹ and 150000 M⁻¹ s⁻¹, respectively.

B2: H240-G1d/L73-k0 (antibody, human IgG1, kappa)
heavy: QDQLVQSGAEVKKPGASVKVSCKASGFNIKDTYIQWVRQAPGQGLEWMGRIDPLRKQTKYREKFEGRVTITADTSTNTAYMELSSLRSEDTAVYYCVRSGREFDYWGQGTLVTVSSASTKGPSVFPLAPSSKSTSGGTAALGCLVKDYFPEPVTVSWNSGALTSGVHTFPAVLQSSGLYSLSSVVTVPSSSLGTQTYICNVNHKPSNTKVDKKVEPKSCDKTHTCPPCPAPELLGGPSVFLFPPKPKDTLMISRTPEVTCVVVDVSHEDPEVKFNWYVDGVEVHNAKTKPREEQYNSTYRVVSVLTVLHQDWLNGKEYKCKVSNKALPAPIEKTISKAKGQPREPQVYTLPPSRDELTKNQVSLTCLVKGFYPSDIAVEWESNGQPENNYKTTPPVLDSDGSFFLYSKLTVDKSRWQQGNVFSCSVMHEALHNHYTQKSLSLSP
light: DIQMTQSPSSLSASVGDRVTITCRASQDIHKYIAWYQQKPGQAPRLLIQYTSTLQPGVPSRFSGSGSGTDYTFTISSLQPEDIATYYCLQYEQLRTFGGGTKVEIKRTVAAPSVFIFPPSDEQLKSGTASVVCLLNNFYPREAKVQWKVDNALQSGNSQESVTEQDSKDSTYSLSSTLTLSKADYEKHKVYACEVTHQGLSSPVTKSFNRGEC
notes: Anti-human Epiregulin antibody with the human IgG1 constant region G1d (C-terminal Gly and Lys deleted); also called EGL-G1d
As to B2, the “A/I ratio (KD for FcγRIIb divided by KD for each FcγR)” value in assay [13] turned out to be 6.1; in assay [14], 3.4; in assay [15], 28.1; in [16] it was 8.9. Besides, the Kd in assay [17] was found to be 10100 nM; in assay [26] it was 0.0901 nM; in assay [27], 1660 nM; in [28], 2960 nM; in assay [29] it was 358 nM; in assay [30], 1120 nM. The “Relative value to KD between G1d and hFcgRs” value in assay [18], in assay [19], in [20], in assay [21], in assay [22] and in assay [23] was 1 throughout. Besides, the binding result in assay [24] is “binds”. Also, in [25], the “EC50 value (hFcγRIIIaV ADCC Reporter Bioassay, Hepa1-6/hEREG target cells)” value worked out at 0.0463 µg/mL.

B3: EGL-G4d (antibody, human IgG4 S228P, kappa)
heavy: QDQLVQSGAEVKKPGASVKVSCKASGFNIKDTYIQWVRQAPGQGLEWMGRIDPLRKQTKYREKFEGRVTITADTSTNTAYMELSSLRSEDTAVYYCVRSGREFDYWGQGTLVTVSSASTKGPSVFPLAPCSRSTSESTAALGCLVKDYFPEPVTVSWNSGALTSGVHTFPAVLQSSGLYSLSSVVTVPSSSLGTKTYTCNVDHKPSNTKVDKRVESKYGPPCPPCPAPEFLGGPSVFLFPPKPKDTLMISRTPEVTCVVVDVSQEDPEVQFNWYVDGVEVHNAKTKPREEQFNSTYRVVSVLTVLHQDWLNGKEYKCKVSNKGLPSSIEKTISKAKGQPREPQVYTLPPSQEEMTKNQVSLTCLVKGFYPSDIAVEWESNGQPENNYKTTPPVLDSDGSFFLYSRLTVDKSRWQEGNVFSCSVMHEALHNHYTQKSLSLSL
light: B2 light
Regarding B3, in assay [24], the binding result is “no binding (tested: 30 µg/mL)”.

B4: 04H1077-G1m/04L1034-lam1 (antibody, human IgG1, lambda, V domains shown)
VH: EVQLVESGGDLVKPGGGLRLSCAASGFTFSSRTMNWVRQAPGKGLEWVSSISTRSGYIYYAESVKGRFTISRDNAKNSLYLQMNSLRAEDTAVYYCARYGKREDMLWVFDYWGQGTLVTVSS
VL: QSALTQPPSASGSPGQTVTISCDGPSTDVGDYNWVSWYQQHPGKAPKLMIYFTSKKPSGVPDRFSGSKSGNTASLTVSGLQAEDEADYFCSTYAAPLGPMFGGGTKLTVLG
On to B4, for which the dissociation constant (Kd) in assay [31] came out at 320 nM. The “Binding to Human CTLA4” value is 0.114 per unit amount of antibody in [32], 0.007 per unit amount of antibody in assay [33], 0.004 per unit amount of antibody in assay [34] and 0.041 per unit amount of antibody in [35].
